Experiments:
Bcd homeodomain [1] = biological target: T1, Bcd homeodomain (Drosophila melanogaster, UniProt P09081-2 77-166); assay: EMSA; 20 mM Tris-acetate pH 7.0, 50 "nM" NaCl as printed (probably mM), 0.01% Tween 20, 0.1 mM DTT, 10% glycerol; room temperature; 4 nM probe; settings: tags: N-GST (pGEX-6P-1, kept); label: Cy3
T1 sequence: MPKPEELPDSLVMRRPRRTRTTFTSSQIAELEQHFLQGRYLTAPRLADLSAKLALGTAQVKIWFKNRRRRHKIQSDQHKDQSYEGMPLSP

Bcd homeodomain [2] = biological target: T1, Bcd homeodomain; assay: FP; binding buffer, no gel; settings: tags: N-GST (pGEX-6P-1, kept); label: 5' Cy5 on strand 1
Bicoid DBD-GST (Bcd) = biological target: T2, Bicoid DBD-GST (Bcd) (UniProt P09081 83-170); assay: competitive fluorescence anisotropy (HiP-FA); mean of replicates 2.884, 2.6855; HiP-FA: 33 mM phosphate pH 7.0, 90 mM NaCl, 0.01% Tween 20, 0.1 mM DTT, 0.5% agarose; conventional titration and EMSA: 20 mM Tris-acetate pH 7.0, 50 nM (sic) NaCl, 0.01% Tween-20, 0.1 mM DTT; settings: protein: recombinant; tags: N-terminal GST; blunt, G:G mismatch at position 6
T2 sequence: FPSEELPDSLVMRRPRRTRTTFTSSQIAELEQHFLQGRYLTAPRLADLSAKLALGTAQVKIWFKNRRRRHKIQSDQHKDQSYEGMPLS

B1: Bcd EMSA probe (dsDNA)
DNA 1: TCGACCGTAATCCCTA
DNA 2: TAGGGATTACGGTCGA
With B1 as the binder, how does the Kd (Bcd homeodomain [1]) read?
Its Kd is 1.8 ± 0.2 nM.

B2: Bcd Cy5 reference (dsDNA)
DNA 1: TCGACGCTAAGCTGTA
DNA 2: TACAGCTTAGCGTCGA
How did the koff (Bcd homeodomain [2]) turn out when B2 was run?
Its koff is 0.41 s⁻¹.

B3: Bcd competitor 7 (G3C) (dsDNA)
DNA 1: TCGACGCTAATCCCTA
DNA 2: TAGGGATTAGGGTCGA
Which Kd (Bicoid DBD-GST (Bcd)) does the source give for B3 here?
The Kd was 2.79 nM.
